How the values were obtained:
[1] = biological target: RelA (p65), subunit of RelA-p50 heterodimer;p50, subunit of RelA-p50 heterodimer (mouse (murine);mouse (murine), UniProt Q04207;P25799 19-321;39-350, |); test: stopped-flow fluorescence
RelA (p65) homodimer = RelA (p65) homodimer (UniProt Q04207 19-321); test: stopped-flow fluorescence
Sequence of RelA (p65) homodimer (Q04207 19-321): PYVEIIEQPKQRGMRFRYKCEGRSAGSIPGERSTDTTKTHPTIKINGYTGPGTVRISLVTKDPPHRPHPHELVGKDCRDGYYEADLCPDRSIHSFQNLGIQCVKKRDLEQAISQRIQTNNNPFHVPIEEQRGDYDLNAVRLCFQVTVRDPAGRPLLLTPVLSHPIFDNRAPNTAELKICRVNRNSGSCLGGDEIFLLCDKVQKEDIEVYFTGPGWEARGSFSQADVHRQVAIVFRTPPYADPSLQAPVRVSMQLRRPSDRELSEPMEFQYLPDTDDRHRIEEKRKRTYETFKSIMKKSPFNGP

Sequence of RelA (p65), subunit of RelA-p50 heterodimer;p50, subunit of RelA-p50 heterodimer (Q04207 19-321, chain 1 of 2): as the sequence (Q04207 19-321) above
Sequence of RelA (p65), subunit of RelA-p50 heterodimer;p50, subunit of RelA-p50 heterodimer (P25799 39-350, chain 2 of 2): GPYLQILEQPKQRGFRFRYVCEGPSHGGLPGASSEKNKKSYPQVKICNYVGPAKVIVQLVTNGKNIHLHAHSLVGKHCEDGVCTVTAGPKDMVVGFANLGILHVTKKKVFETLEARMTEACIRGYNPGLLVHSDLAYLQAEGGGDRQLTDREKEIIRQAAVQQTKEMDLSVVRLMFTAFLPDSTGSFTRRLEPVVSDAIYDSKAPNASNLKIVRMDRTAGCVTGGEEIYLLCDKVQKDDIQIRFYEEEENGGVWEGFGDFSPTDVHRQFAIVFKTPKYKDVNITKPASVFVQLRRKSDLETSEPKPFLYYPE

GGGAAATTCCTCCCCCAGGAATTTCCC (structured_DNA, 5' AmMC6 amino linker) [IFN-kB hairpin]
binding result [1]: binds
binding result (RelA (p65) homodimer): binds

— article PMC5951767
